Measured values from publication doi:10.1101/2025.11.19.685371v1 (bioRxiv, 2025).

Tests used:
[1] = FCS size characterization; format: physicochemical; conditions: individual 30 s FCS measurements, 10 per sample; three preparations
[2] = test system: immortalized human cortical astrocytes; assay: Cell viability of astrocytes; format: cell-based; conditions: 4 μM Aβ, 24 hours, 37°C; three biological replicates
Thioflavin T = format: physicochemical; conditions: 2.5 μM Aβ in PBS, 20 μM ThT, room temperature, shaking 100 rpm between reads

Substance | CV of sizes within the same preparation [1] | toxicity of Aβ to astrocytes (cell viability) [2] | ThT aggregation t1/2 (Thioflavin T)
Aβ oligomers: stable pre-formed Aβ oligomers prepared by the protocol of Barghorn et al. with SDS | 17 ± 2% | significantly higher toxicity | –
Aβ monomers: Aβ42 peptide with methionine as N-terminal residue, recombinantly expressed in E. coli, SEC-purified aggregate-free monomer | – | – | 1.32 ± 0.13 h
